According to patent publication US20050100554A1 (published 2005):

Columns and labels:
CKM = biological target: T1, CKM (human, UniProt P06732 1-381); test: Y2H; INT ID 403
T1 construct: also called MARK4

TNNC1 = biological target: T2, TNNC1 (human, UniProt P63316 1-161); test: Y2H; INT ID 407
T2 construct: also called cbe_4267981

yeast Sec31p homolog = biological target: T3, yeast Sec31p homolog (human, UniProt O94979 1-1220); test: Y2H; INT ID 408
T3 construct: also called KIAA0905; cbe_4383836
T3 sequence: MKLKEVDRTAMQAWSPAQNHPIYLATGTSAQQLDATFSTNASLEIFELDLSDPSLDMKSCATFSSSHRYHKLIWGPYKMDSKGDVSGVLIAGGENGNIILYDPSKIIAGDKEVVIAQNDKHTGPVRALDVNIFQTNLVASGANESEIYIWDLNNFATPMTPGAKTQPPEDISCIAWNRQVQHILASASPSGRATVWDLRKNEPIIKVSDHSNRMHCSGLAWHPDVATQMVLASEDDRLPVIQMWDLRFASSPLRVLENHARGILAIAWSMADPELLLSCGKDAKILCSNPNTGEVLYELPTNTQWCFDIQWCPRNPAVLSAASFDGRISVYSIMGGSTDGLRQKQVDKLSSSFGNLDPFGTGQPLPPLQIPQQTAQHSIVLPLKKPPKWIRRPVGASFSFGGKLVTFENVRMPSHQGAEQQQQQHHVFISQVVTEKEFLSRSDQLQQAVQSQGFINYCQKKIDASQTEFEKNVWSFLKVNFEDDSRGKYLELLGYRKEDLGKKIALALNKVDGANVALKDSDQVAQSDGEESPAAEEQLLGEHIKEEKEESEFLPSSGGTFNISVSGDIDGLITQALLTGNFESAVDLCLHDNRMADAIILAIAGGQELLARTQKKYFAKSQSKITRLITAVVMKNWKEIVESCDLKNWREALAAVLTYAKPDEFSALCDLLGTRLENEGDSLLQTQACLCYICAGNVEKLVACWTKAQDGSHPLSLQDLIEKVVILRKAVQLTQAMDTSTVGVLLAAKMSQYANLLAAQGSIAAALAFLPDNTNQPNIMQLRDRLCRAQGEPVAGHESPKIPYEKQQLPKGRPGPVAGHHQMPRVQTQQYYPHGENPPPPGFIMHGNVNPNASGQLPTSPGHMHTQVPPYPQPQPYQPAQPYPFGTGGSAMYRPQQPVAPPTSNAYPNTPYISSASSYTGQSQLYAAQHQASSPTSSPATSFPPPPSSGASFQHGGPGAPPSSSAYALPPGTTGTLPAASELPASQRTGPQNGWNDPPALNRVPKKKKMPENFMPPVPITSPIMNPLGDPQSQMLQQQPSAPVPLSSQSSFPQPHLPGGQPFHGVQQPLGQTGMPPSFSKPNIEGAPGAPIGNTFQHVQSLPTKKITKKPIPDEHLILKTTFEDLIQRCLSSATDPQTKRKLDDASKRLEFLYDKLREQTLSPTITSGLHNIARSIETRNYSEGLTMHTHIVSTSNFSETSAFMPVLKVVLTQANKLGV

Prey1207 = biological target: T4, Prey1207 (human, UniProt Q6PI78 63-240); test: Y2H; INT ID 409
T4 construct: also called LOC157378; hypothetical protein BC017881
T4 sequence: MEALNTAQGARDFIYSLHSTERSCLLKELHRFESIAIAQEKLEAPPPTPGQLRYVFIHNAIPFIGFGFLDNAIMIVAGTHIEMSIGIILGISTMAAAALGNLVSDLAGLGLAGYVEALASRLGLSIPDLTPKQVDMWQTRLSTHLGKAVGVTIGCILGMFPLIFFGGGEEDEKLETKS

Prey2313 = biological target: T5, Prey2313 (human, UniProt Q8WV44 21-380); test: Y2H; INT ID 399
T5 construct: also called Homo sapiens, clone IMAGE: 3625550, mRNA, partial cds; cbe_2685998
T5 sequence: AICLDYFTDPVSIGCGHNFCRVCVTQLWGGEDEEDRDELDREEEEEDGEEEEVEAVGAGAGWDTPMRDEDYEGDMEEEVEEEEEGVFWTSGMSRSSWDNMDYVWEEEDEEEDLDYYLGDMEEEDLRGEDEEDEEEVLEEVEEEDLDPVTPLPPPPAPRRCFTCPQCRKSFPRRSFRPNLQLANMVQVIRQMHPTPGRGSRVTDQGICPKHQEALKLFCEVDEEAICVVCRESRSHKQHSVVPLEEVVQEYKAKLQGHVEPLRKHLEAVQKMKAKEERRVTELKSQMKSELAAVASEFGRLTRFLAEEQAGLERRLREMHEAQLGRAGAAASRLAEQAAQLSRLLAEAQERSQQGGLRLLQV

[1] = biological target: T6, hypothetical protein FLJ22729 (human, UniProt Q96QE5 203-360); test: Y2H; INT ID 398
T6 construct: also called cbe_1807361
T6 sequence: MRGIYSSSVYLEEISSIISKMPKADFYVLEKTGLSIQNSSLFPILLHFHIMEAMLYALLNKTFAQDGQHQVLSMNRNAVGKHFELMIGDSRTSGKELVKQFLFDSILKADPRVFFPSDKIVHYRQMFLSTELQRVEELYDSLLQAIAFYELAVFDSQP

[2] = biological target: T7, kinesin-associated protein 3 (human, UniProt Q92845 1-792); test: Y2H; INT ID 406
T7 construct: also called KIFAP3; cbe_4138433
T7 sequence (Q92845 whole entry): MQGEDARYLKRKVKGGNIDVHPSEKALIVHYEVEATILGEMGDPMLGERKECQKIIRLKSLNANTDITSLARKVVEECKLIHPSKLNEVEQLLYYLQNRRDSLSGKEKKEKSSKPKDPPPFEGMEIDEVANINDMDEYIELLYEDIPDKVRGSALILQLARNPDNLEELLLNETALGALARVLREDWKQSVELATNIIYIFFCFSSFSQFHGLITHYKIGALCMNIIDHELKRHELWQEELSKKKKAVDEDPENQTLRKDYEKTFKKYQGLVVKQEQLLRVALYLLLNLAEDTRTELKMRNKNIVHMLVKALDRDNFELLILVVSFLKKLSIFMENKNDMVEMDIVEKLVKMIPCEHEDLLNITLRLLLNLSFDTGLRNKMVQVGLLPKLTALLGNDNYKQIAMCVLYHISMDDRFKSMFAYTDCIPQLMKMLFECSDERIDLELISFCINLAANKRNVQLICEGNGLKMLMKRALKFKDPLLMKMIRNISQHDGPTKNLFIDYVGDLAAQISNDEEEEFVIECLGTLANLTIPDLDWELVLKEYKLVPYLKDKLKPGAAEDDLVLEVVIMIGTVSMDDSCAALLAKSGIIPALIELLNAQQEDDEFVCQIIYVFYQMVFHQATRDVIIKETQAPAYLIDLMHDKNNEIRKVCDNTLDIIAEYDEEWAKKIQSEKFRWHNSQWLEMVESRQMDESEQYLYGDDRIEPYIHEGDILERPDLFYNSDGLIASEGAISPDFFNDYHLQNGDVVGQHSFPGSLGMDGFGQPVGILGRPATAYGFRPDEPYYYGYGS

[3] = biological target: T8, tumor necrosis factor, alpha-induced protein 1 (endothelial) (human, UniProt Q13829 1-316); test: Y2H; INT ID 402
T8 construct: also called TNFAIP1; cbe_3705944
T8 sequence: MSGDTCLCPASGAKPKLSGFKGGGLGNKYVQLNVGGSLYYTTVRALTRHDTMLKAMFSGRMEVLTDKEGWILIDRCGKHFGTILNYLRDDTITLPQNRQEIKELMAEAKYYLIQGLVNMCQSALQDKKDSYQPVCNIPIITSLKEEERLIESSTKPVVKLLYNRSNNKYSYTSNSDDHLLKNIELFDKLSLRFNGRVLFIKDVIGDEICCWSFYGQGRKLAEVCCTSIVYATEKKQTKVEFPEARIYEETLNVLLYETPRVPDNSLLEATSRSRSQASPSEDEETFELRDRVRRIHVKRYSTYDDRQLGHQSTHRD

Measured: binding result

T1 sequence (P06732 whole entry): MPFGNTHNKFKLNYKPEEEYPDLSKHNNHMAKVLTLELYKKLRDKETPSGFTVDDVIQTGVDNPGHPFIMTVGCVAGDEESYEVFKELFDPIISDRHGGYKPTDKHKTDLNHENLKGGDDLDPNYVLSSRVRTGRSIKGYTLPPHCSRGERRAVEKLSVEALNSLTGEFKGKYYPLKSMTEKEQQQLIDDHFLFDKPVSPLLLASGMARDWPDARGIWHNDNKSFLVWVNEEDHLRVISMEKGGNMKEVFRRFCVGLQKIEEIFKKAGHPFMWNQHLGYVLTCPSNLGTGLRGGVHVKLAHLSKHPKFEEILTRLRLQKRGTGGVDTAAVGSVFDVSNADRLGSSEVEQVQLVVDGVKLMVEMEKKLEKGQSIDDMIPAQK

B1: Human Papillomavirus 1a E1-E4 (other)
chain: MADNKAPQGLLGLLQYTPTTQPYPRVTPPSNRRPSTTPNSQDRGRPRRSDKDSRKHLYADGLTDGEDPEVPEVEDEEKENQRPLGHPDLSLLRETLEVYTQRLKRDILQDLDDFCRKLGIHPWSV
notes: also called HPV 1a E1-E4; cbe_251740
binds: all assays above
